The results in this text go back to patent US20170283484A1.

Test [1] deals with HCV E2 envelope glycoprotein (hepatitis C virus) (UniProt P27958). The experiment in a line: ELISA of E2 on AP33 alanine mutants. For orientation: In an ELISA, binding on a coated surface is turned into a signal by an enzyme label.
The target of test [2] is AP33 antibody (wild type mouse monoclonal). Briefly: peptide inhibition ELISA: antibody pre-incubated with peptide, then transferred to E2-coated plates (competitor: E2) [panel AP33].
AP33 antibody (wild type mouse monoclonal), sequence (VH, as listed by the source, chain 1 of 2): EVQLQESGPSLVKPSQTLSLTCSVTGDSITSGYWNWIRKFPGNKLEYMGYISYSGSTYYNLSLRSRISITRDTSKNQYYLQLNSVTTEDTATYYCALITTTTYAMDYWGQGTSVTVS
AP33 antibody (wild type mouse monoclonal), sequence (VL, as listed by the source, chain 2 of 2): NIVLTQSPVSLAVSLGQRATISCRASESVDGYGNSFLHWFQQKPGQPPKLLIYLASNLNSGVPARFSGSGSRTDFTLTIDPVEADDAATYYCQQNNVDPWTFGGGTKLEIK

HCV E2 envelope glycoprotein (hepatitis C virus), sequence (P27958 384-746 limits assumed): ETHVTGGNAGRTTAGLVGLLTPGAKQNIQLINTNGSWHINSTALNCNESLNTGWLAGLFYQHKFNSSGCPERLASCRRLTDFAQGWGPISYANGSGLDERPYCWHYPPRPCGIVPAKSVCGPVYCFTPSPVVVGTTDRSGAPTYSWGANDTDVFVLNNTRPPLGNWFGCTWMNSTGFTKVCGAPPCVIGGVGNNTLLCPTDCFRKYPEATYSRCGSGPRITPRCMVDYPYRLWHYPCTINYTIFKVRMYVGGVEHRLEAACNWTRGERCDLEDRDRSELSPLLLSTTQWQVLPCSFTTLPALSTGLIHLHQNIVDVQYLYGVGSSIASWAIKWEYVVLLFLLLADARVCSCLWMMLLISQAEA

In test [1], AP33 mutant FL32A (antibody) displayed a reduction of binding relative to WT AP33 of 90%. On the same count and under the same terms, to AP33 mutant IH95A (antibody) belongs 90%; to AP33 mutant NL91A (antibody), 90%.

The substance AP33 mutant WL96A (antibody) registered a reduction of binding relative to WT AP33 in test [1] of 90%. The same measure, in the same setting: the value for AP33 mutant YH33A (antibody) was 90%; that for AP33 mutant YH58A (antibody) was 90%. Take “peptide corresponding to the WT AP33 epitope (aa residues 412-424 of E2) (from UniProt P27958 412-424)”: the IC50 (read off the curve) in test [2] was found to be 0.1 µg/mL.
